Laboratory results as given in PMC10844655, “G-quadruplexes promote the motility in MAZ phase-separated condensates to activate CCND1 expression and contribute to hepatocarcinogenesis”.
Substitutions are numbered along the chain they refer to.

Key:
MAZ WT [1] = target: T1, MAZ WT (human, UniProt P56270 1-477); test: EMSA; Binding buffer 250 mM HEPES, 500 mM KCl, 20 mM MgSO4, 10 mM DTT pH 8.0 (so in the source), on ice 30 min; G4 oligos annealed in 50 mM Tris-HCl, 50 mM KCl, 40% PEG200; 8% native PAGE (G4 gels with 100 mM KCl, 40% PEG200); conditions: protein: recombinant, tags: His6 (also mCherry-His6 fusion), label: FAM
T1 sequence: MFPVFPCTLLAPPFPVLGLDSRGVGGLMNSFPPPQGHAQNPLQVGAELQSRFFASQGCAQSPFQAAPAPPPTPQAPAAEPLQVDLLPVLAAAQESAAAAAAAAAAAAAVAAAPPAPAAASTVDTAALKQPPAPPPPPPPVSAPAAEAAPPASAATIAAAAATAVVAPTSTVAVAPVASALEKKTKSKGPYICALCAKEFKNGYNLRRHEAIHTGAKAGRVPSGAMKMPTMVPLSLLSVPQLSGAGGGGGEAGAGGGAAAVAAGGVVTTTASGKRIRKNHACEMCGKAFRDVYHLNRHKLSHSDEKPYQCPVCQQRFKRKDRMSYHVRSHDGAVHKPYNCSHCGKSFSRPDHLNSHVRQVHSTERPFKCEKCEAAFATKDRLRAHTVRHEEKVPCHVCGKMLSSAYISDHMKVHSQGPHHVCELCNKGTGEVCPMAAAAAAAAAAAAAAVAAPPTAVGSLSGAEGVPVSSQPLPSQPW

MAZ WT [2] = target: T1, MAZ WT; test: EMSA; KCl-annealed; Binding buffer 250 mM HEPES, 500 mM KCl, 20 mM MgSO4, 10 mM DTT pH 8.0 (so in the source), on ice 30 min; G4 oligos annealed in 50 mM Tris-HCl, 50 mM KCl, 40% PEG200; 8% native PAGE (G4 gels with 100 mM KCl, 40% PEG200); conditions: protein: recombinant, tags: His6 (also mCherry-His6 fusion), label: FAM
MED1-IDR = MED1-IDR (UniProt Q15648 948-1574); test: EMSA; Binding buffer 250 mM HEPES, 500 mM KCl, 20 mM MgSO4, 10 mM DTT pH 8.0 (so in the source), on ice 30 min; G4 oligos annealed in 50 mM Tris-HCl, 50 mM KCl, 40% PEG200; 8% native PAGE (G4 gels with 100 mM KCl, 40% PEG200); conditions: protein: recombinant, tags: EGFP, His6, label: FAM
MAZ(ZF2-3) = target: T2, MAZ(ZF2-3) (human, UniProt P56270 279-329); test: as above; conditions: protein: recombinant; tags: mCherry; His6; label: FAM; G4 parallel, intra- and/or intermolecular
T2 sequence: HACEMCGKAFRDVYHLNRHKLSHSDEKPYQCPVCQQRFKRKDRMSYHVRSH

BRD4-IDR = BRD4-IDR (UniProt O60885 674-1351); test: as above; conditions: protein: recombinant, tags: EGFP, His6, label: FAM
MAZ(ZF4) = target: T3, MAZ(ZF4) (human, UniProt P56270 337-360); test: as above; conditions: protein: recombinant; tags: mCherry; His6; label: FAM; G4 parallel, intra- and/or intermolecular
T3 chain: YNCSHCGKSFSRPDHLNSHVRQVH

MAZ(ZF3-4) = target: T4, MAZ(ZF3-4) (human, UniProt P56270 307-360); test: as above; conditions: protein: recombinant; tags: mCherry; His6; label: FAM; G4 parallel, intra- and/or intermolecular
T4 sequence: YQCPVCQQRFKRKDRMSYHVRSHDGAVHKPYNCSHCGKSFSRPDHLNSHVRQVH

MAZ(ZF2-4) = target: T5, MAZ(ZF2-4) (human, UniProt P56270 279-360); test: as above; conditions: protein: recombinant; tags: mCherry; His6; label: FAM; G4 parallel, intra- and/or intermolecular
T5 sequence: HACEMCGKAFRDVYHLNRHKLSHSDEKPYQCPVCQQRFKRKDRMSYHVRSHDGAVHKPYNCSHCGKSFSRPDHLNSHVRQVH

MAZ WT [3] = target: T1, MAZ WT; test: competition; unlabeled WT vs FAM-WT; Binding buffer 250 mM HEPES, 500 mM KCl, 20 mM MgSO4, 10 mM DTT pH 8.0 (so in the source), on ice 30 min; G4 oligos annealed in 50 mM Tris-HCl, 50 mM KCl, 40% PEG200; 8% native PAGE (G4 gels with 100 mM KCl, 40% PEG200); conditions: protein: recombinant; tags: His6 (also mCherry-His6 fusion); label: FAM; G4 parallel, intra- and/or intermolecular
[4] = G4 parallel, intra- and/or intermolecular

Sequence of MED1-IDR (Q15648 948-1574): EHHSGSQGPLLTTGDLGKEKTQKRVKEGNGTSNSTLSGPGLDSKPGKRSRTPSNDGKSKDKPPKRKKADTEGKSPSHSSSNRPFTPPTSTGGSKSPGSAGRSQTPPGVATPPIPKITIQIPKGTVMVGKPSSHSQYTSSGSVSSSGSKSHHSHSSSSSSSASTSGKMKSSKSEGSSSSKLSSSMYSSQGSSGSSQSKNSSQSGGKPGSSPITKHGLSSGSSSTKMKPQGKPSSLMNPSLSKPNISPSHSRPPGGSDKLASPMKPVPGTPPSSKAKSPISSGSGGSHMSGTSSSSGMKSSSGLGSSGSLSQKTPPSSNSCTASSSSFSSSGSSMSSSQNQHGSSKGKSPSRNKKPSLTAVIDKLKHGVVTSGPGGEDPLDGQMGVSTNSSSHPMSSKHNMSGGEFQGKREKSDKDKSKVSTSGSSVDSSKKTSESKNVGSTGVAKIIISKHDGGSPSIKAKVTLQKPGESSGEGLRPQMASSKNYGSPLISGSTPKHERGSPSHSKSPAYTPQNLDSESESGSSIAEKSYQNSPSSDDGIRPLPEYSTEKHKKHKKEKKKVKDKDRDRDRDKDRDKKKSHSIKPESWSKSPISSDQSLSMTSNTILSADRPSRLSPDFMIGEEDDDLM

GGAGGAGGAGGAGGAGGAGGAGGA (structured_DNA) [MYB-G4]: binds (MAZ WT [1]; 2 G4s with two quartets).

GGGGCGCGGGGCGCGGGGCATGGGG (structured_DNA) [MDM2-G4]: binds (MAZ WT [1]; G4 antiparallel, 4 quartets).

B1: CCND1-G4 Mut2 (structured_DNA)
DNA: ATGGGAGCGAGAGGAGGGCGGGGGCGGACGCAGGAGGAGGGGGCGCGGGCG
B1: binds (MAZ WT [2]; intermolecular parallel G4).

B2: CCND1-G4 WT (structured_DNA)
DNA: B1 DNA with A10G, A15G, A28G, A35G
B2: binds (MED1-IDR; [4]); no binding (MAZ(ZF2-3)); binds (BRD4-IDR; [4]). B2: no binding (MAZ(ZF4)); no binding (MAZ(ZF3-4)); binds (MAZ(ZF2-4)). B2: binds (MAZ WT [3]).

B3: CCND1-G4 Mut1 (ssDNA)
DNA: ATGAGAGCGAGAGAGAGACGAGAGCGAGCGCAGAGAGAGAGAGCGCGAGCG
B3: no binding (MED1-IDR; no G4); no binding (BRD4-IDR; no G4); no binding (MAZ WT [2]; no G4).

TAGGGTTAGGGTTAGGGTTAGGGTTAG (structured_DNA) [TEL-G4]: binds (MAZ WT [1]; G4 hybrid, 3 quartets).

TGAGGGTGGGTAGGGTGGGTAA (structured_DNA) [MYC-G4 (Table S2)]: binds (MAZ WT [1]; G4 parallel, 3 quartets).

B4: BS1 (dsDNA)
DNA 1: AGGGGGAGGGGGCG
DNA 2: CGCCCCCTCCCCCT
B4: binds (MAZ WT [1]; blunt).

B5: BS3 (dsDNA)
DNA 1: GGGGGGCGGGGGCG
DNA 2: CGCCCCCGCCCCCC
B5: binds (MAZ WT [1]; blunt).

B6: BS2 (dsDNA)
DNA 1: AGCGGGAGGGGGGC
DNA 2: GCCCCCCTCCCGCT
B6: binds (MAZ WT [1]; blunt).

GGGCGCGGGAGGAATTGGGCGGG (structured_DNA) [BCL2-G4]: binds (MAZ WT [1]; G4 hybrid, 3 quartets).
